Entries after “also recorded” stand apart in the source; their conditions may differ.

Test [1] addresses T1, epidermal growth factor receptor (EGFR) on tumor cells (human, UniProt P00533 25-1210).
T1 construct: whole, on cells; Intact EGFR on A431 and MDAMB468 cells (1x10^6-3x10^6 EGFR/cell); also called EGFR-expressing A431 cells; MDAMB468 cells
In words: apparent KD, flow cytometry, fluorescent immunoliposomes on MDAMB468 cells, 4 C; 74 scFv/liposome. Background: A flow cytometer gives signals particle by particle.

The target in test [2] is T1, epidermal growth factor receptor (EGFR) …. Kind of test: apparent KD, flow cytometry, fluorescent immunoliposomes on MDAMB468 cells, 4 C; 148 scFv/liposome.
Test [3] has as its target T2, A431 cells expressing EGFR (Homo sapiens, UniProt P00533).
T2 construct: Human squamous carcinoma A431 cells expressing EGFR; endogenous in cells; host or cells: A431
Kind of test: scFv affinity for cells expressing EGFR (A431) by flow cytometry. In kind it is binding. How it is done:
Human squamous carcinoma A431 cells expressing EGFR were grown to 80-90% confluence in RPMI medium supplemented with 10% fetal bovine serum and harvested by trypsinization. […] Cell binding was performed at 4° C. in FACS buffer in a volume calculated to ensure fivefold scFv excess and for a duration calculated to ensure that the reaction had reached equilibrium. After two washes with 200 μL of FACS buffer, cell-bound scFv was detected by the addition of 100 μl of 1 μg/ml biotinylated His probe (Santa Cruz Biotech.) and a 1:800 (v/v) dilution of streptavidin-PE (Biosource). After incubation at 4° C. for 30 min, the cells were washed twice and resuspended in PBS containing 4% (v/v) paraformaldehyde. Fluorescence was measured by flow cytometry in a FACS LSRII instrument (Becton Dickinson), and the median fluorescence intensity (MFI) values were fit to the equation:
MFI=MFImin+MFImax([Ab]/(KD+[Ab])
using the software program Kaleidagraph as described previously (Benedict et al. (1997) J. Immunol. Methods, 201: 223-231).

In the next test the target is T3, biotinylated EGFR-ECD (Homo sapiens, UniProt P00533).
T3 construct: Recombinant EGFR-ECD was expressed in HEK293 cells; made in house; host or cells: HEK293
Kind of test: KD of yeast-displayed scFv for biotinylated EGFR-ECD by flow cytometry. Type of test: binding. The conditions noted are these: concentrations as high as 8 μM. The procedure:
Generally, six to eight different concentrations of biotinylated EGFR were used to span a range of concentrations from ten times above to ten times below the KD. Incubation volumes, times and yeast numbers were chosen to ensure that the studies were done in at least fivefold antigen excess and that equilibrium had been achieved (Razai et al. (2005) J. Mol. Biol. 351: 158-169). For anti-EGFR scFv, […] in 50 μl were incubated with biotinylated EGFR-ECD for 1 h at room temperature. […] Only yeast displaying scFv (as determined by binding of SV5 mAb) were gated for affinity measurements.

Another test concerns MDAMB468 cells. In words: differential binding of scFv to cell lines by flow cytometry. Also on record: species or system human. The conditions noted are these: 1×10^6−3×10^6 EGFR/cell.
For the next test, the target named is T4, A431 cells (Homo sapiens, UniProt P00533).
T4 construct: endogenous in cells; host or cells: A431
The test is described as above. The conditions noted are these: 1×10^6−3×10^6 EGFR/cell.

In another test the test system is MDAMB453 cells. Described as above. The settings on record: 10^4 EGFR/cell.
A further test relates to NR6 cells. The description is as above. The settings on record: parental, EGFR negative.
Test [4] concerns the target T5, EGFR (vIII) stably transfected NR6M cells (Homo sapiens, UniProt P00533, DELINS30-297G).
T5 construct: expressed in transfected cells; host or cells: NR6M (NR6 stably transfected with EGFRvIII)
Described as above.

B1: EGFR-targeted immunoliposome constructed from C10 scFv (other)
VH: EVQLVQSGAEVKKPGSSVKVSCKASGGTFSSYAISWVRQAPGQGLEWMGGIIPIFGTANYAQKFQGRVTITADESTSTAYMELSSLRSEDTAVYYCAREEGPYCSSTSCYGAFDIWGQGTLVTVSS
VL: QSVLTQDPAVSVALGQTVKITCQGDSLRSYFASWYQQKPGQAPTLVMYARNDRPAGVPDRFSGSKSGTSASLAISGLQSEDEADYYCAAWDDSLNGYLFGAGTKLTVL
modifications: free cysteine residue at the COOH terminus conjugated to Mal-PEG-DSPE and inserted into the liposome ; The scFv carries a free cysteine at the COOH terminus conjugated to Mal-PEG-DSPE and inserted into a 100-120 nm liposome. It is multivalent, at 12-148 scFv per liposome. None of this can be carried by the letters.
notes: also called C10 ILs; C10 IL; not shown: scFv linker, the C-terminal extension with the free cysteine and tags, and the Mal-PEG-DSPE liposome carrier
In the case of B1, the Kd in test [1] worked out at 1.75 nM; in [2] it was 0.36 nM.

B2: 2224: P2/2 scFv combined with the VH CDR3 Gly to Ala mutation from P2/4; SEQ ID NO:17 and 24 (protein)
scFv: QSVLTQDPAVSVALGQTVKITCQGDSLRSYLASWYQQKPGQAPTLVTYARNDRPAGVPDRFSGSKSGTSASLAISGLQSEDEADYYCAAWDDSLNGYLFGAGTKLTVL
modifications: Synthetic antibody
Regarding B2, the “improvement in affinity compared to C10 scFv” value in test [3] was 280 fold.

B3: C10: parental (wild-type) internalizing human anti-EGFR scFv from a non-immune phage library; SEQ ID NO:1 (protein)
scFv: EVQLVQSGAEVKKPGSSVKVSCKASGGTFSSYAISWVRQAPGQGLEWMGGIIPIFGTANYAQKFQGRVTITADESTSTAYMELSSLRSEDTAVYYCAREEGPYCSSTSCYGAFDIWGQGTLVTVSS
modifications: Synthetic antibody
Turning to B3, the “binding of yeast-displayed scFv to biotinylated recombinant EGFR” value in the test with biotinylated EGFR-ECD is “only minimal binding”. The “binding to MDAMB468 cells” value in the test on MDAMB468 cells is listed as “stained”. Further, the “binding to A431 cells” value in the test with A431 cells is on record as “stained”. Also, the “binding to MDAMB453 cells” value in the test with MDAMB453 cells is “did not stain”. In addition, the “binding to NR6 cells” value in the test on NR6 cells was “minimal binding; also recorded: did not stain”. Besides, the “binding to NR6M cells” value in [4] is “strong staining; also recorded: stained”.

(Values after US20100008978A1, “NANOPARTICLES EFFECTIVE FOR INTERNALIZATION INTO CELLS” (THE REGENTS OF THE UNIVERSITY OF CALIFORNIA, priority 2008, published 2010).)
